Consider 2 molecules from patent publication US20210147563A1 (GENEUIN TECH, published 2021).

Test [1] addresses T1, DR4 expressed on the cell surface of cancer cells (HeLa, HCT-116) (human) (UniProt O00220).
T1 sequence (looked up): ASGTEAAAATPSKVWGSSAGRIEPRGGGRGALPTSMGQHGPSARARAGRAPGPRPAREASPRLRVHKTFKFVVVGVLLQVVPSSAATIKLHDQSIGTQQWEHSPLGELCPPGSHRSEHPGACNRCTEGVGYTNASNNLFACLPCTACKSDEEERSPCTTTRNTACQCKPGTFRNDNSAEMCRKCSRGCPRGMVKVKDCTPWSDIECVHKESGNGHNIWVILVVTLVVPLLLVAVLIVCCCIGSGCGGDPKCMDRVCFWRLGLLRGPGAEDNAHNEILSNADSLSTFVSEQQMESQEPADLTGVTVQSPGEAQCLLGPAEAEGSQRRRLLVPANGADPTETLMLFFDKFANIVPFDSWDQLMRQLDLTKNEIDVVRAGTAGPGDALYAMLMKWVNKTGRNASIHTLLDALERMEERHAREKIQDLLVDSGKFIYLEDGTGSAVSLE
The test is described as follows: cell-based or functional assay.

For test [2], the target named is T2, DR4 expressed on the cell surface of cancer cells (HeLa, HCT-116) (human, UniProt O00220 24-468).
T2 construct: whole, on cells; also called death receptor 4; DR4 trimer
T2 sequence (looked up): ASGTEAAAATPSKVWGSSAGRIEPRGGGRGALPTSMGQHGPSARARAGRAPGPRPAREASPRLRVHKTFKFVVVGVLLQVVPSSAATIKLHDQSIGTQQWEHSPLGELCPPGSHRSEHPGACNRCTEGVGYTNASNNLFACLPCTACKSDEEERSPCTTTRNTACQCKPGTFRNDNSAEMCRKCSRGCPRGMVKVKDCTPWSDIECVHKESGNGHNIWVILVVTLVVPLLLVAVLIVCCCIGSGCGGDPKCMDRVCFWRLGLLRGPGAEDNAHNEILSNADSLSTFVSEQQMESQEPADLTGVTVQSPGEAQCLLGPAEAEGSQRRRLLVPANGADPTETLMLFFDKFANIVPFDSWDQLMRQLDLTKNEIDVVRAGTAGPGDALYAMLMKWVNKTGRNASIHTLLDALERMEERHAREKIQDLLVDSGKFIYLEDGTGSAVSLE
The test is described as follows: inferred from apoptosis (MTT) assay on DR4-expressing HeLa and HCT-116 cells against DR4-negative HEK293 cells; no direct binding assay. The procedure:
To this end, apoptosis-inducing effects of secretory humanized DR4 scFv antibody recombinant protein were analyzed using HeLa cells, a cervical cancer cell line expressing DR4 on the cell surface, and HCT-116 cells, a colon cancer cell line. […] Each of these three cells was inoculated in a culture dish and cultured overnight, and then the secretory humanized DR4 scFv antibody recombinant protein was added to the culture medium, and the degree of death of the cells during culturing was determined by MTT method (Cyto X™ Cell viability assay kit, LPS solution, Korea).

B1: humanized DR4 scFv chimeric antigen receptor (CAR) (protein, part only; not given: hinge, transmembrane and signaling domains, not shown: a dimerising Fc or GST; small tags and cut ends)
chain, part: EVQLVESGGGLVQPGGSLRLSCSASGFTFSSYSMQWVRQAPGKGLEYVAGIRSDGRYTNYGAAVKGRATISRDNSKNTVYLQMNSLRAEDTAVYYCAKGAYGYCGSTCAPYLGQIDAWGQGTLVTVSSGSTSGSGKPGSGEGSTKGSYELTQPPSVSVSPGQTVRITCSGGRYTYGWFQQKPGQAPVTVIYGNDKRPSNIPSRFSGSTSGSTVTLTISGVQAEDEADYYCGGADFSAGLFGGGTKLTVL
The molecule B1 registered a cytotoxicity of CAR expressing lymphocytes on HeLa cells against HEK293 cells (CellTox Green fluorescence, effector:target 10:1, 3 days) in test [1] of 2 to 3 times.

B2: secretory humanized DR4 scFv antibody recombinant protein (scFv)
scFv: EVQLVESGGGLVQPGGSLRLSCSASGFTFSSYSMQWVRQAPGKGLEYVAGIRSDGRYTNYGAAVKGRATISRDNSKNTVYLQMNSLRAEDTAVYYCAKGAYGYCGSTCAPYLGQIDAWGQGTLVTVSSGSTSGSGKPGSGEGSTKGSYELTQPPSVSVSPGQTVRITCSGGRYTYGWFQQKPGQAPVTVIYGNDKRPSNIPSRFSGSTSGSTVTLTISGVQAEDEADYYCGGADFSAGLFGGGTKLTVL
notes: Secreted from HEK293 cells transfected with pCMVFL-srkDR4 and purified through the His tag; no cleavage site is stated; also called secretory (soluble form) humanized DR4 scFv antibody fragment recombinant protein; humanized anti-DR4 scFv; not shown: Flag tag; IgG3 hinge; isoleucine zipper (ILZ) peptide; His6 tag
In the case of B2, the binding result in test [2] is reported as “binds”.
